US8889620B2, “Pharmaceutical compositions comprising peptide antagonists of vascular endothelial growth factor” (Children's Medical Center Corporation, priority 1997, dated 2014)
Where no end group is shown, it is not given here.

Molecular target: T1, VEGF165R on 231 cells (Homo sapiens, UniProt O14786)
T1 construct: to 231 cells which express only VEGF165R; endogenous in cells; host or cells: MDA-MB-231 (ATCC)
Assay: Inhibition of 125I-VEGF165 binding to MDA-MB-231 (231) cells
Procedure: FIGS. 3A-3C. Inhibition of ^125I-VEGF165 binding to HUVEC, MDA MB 231 cells, and PAE-KDR cells by GST-EX 7+8. ^125I-VEGF165 (5 ng,/ml) was bound to subconfluent cultures of HUVEC (3A), MDA MB 23 1 cells (3B), and PAE-KDR cells (3C) in 48-well dishes in the presence of increasing amounts of GST-Ex 7+8 (closed 20 square) or control GST protein (open squares). At the end of a 2-h incubation, the cells were washed and lysed, and the cell-associated radioactivity was determined with a γ-counter. The counts obtained are expressed as the percentage of the counts obtained in the presence of PBS without addition of GST or fusion protein.
Binding and cross-linking experiments using 125I-VEGF165 and 125I-VEGF121 were performed at described previously (Gitay-Goren, et al., J. Biol. Chem., 287, 6003-6096 (1992), Soker, et al., J: Biol. Chem., 271,5761-5767 (1996)). VEGF binding was quantified by measuring the cell-associated radioactivity in a y-counter (Beckman, Gamma 5500). The counts represent the average of three walls. All experiments were repeated at least three times, and similar results were obtained. 125I-VEGF cross-linked complexes were resolved by 6% SDS-PAGE, and the gels were exposed to a phosphor screen and scanned after 24 h by a PhosphorImager (Molecular Dynamics). Subsequently, the gels were exposed to x-ray film.

T1 sequence (O14786 22-923): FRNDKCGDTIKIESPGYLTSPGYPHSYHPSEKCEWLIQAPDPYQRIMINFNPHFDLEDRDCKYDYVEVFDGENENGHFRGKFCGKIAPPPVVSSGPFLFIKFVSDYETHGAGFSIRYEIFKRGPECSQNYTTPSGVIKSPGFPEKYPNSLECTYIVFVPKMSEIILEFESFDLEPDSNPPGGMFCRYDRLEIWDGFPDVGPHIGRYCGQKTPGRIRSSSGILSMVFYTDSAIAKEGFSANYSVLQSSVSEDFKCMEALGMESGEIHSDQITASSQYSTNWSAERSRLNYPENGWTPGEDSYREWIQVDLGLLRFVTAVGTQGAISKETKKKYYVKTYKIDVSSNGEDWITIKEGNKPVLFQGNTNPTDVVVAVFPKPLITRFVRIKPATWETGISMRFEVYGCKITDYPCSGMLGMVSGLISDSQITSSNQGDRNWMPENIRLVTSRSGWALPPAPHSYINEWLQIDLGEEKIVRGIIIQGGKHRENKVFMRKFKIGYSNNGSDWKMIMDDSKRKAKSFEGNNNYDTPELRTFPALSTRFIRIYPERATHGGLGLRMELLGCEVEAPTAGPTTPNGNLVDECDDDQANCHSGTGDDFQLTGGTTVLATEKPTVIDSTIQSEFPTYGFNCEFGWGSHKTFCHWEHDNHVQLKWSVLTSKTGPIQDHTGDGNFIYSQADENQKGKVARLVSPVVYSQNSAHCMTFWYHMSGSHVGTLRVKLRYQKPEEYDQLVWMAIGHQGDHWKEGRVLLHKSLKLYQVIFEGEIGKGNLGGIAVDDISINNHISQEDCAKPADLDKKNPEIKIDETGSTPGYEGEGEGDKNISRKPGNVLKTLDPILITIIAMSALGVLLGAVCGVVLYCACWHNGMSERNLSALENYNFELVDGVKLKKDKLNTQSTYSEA

inhibition of 125I-VEGF165 binding to 231 cells (125I-VEGF165 5 ng/ml, increasing concentrations of fusion protein, FIG. 3B): 97-98% | VEGF165 binding to 231 breast cancer cells (in words) (cells express VEGF165R and not KDR/Flk-1): inhibits
Substance: GST-Ex 7+8: GST fusion protein containing the peptide encoded by VEGF165 exons 7 and 8 (PCGPCSERRKHLFVQDPQTCKCSCKNTDSRCKARQLELNERTCRCDKPRR; cysteine pairing not given here; also: GST fusion protein, side of fusion not given here)
